Assays:
[1] = Photodynamic activity of the photosensitiser
[2] = tested on: experimentelle Tumoren und Xenotransplantate, human; assay: Accumulation (concentration) of radiolabelled agents in experimental tumours and human xenografts; assay type: in vivo, Ratte; Nacktmaus; settings: 300 µC = 11,1 MBq administered; 1a and 1c in all tumours/xenografts of the 2nd table, compound of Beispiel 2 only in Walker Carcinosarcom, Osteosarcom, Ovarialcarcinom (O-342)
Excerpt: Schließlich wurden für CT-Untersuchungen die folgenden Verbindungen gemäß Beispiel 2 hergestellt: • 4a) Tri-jod-phenol-CMPEG • 4b) Tri-jod-benzoesäure-AMPEG • 4c) Iodoxaminsäure-(AMPEG)₂ Die Anreicherung (Konzentrierung) dieser Mittel wurde an folgenden experimentellen Tumoren und an folgenden Tiermodellen geprüft:
Alle diese experimentellen Tumoren und Xenotransplantate wurden mit den Verbindungen a und c gemäß Beispiel 1 (also 1a und 1c) und drei davon, nämlich das Walker Carcinosarcom, das Osteosarcom und das Ovarialcarcinom (O-342) auch mit dem Diphosphonat gemäß Beispiel 2 untersucht.
(§1) Bei allen diesen Anwendungsversuchen wurden immer 300 µC = 11,1 MBq verabreicht. ES zeigten sich mit den eingesetzten Mitteln, nämlich 1a und 1c und die Verbindung aus Beispiel 2 eine Konzentration von mindestens 30 % des Mittels an der gewünschten Stelle, also am Tumor. Die beigefügte Fig. 4 zeigt das Bild einer BDIX-Rattemit Ovarialcarcinom 42 h nach Injektion, die mit ¹³¹J-HOPAD-CMPEG, also ¹³¹J-Hydroxyphenyl-1-aminomethan-1,1-diphosphonat- Cyanurchlorid aktiviertes Polyethylenglykol (n = ca. 100 bis 110) in einer Menge von 300 µC behandelt war. Das Bild zeigt, daß ganz unten, im Tumor ca. 30 +/- 2 % des Mittels konzentriert sind, während in der Mitte die Leber ca. 10 % zeigt und die Schilddrüse, die oberhalb der Leber sichtbar ist, weit weniger als 2 % des Mittels aufgenommen hat. Diese %-Angaben beziehen sich auf die Gesamtmenge an die mit radiojadmarkierten Mittel im Gesamtkörper der Ratte.

[3] = tested on: Ovarialcarcinom; assay: Whole-body distribution of radioiodine-labelled agent in tumour-bearing rat (Fig. 4, Fig. 5); assay type: in vivo, BD IX Ratte
Method: as §1
Die beigefügte Fig. 5 zeigt die Messung einer mit ¹³¹I TOP-(CMPEG)4 behandelten BD IX Ratte (auch hier Ovarialcarcinom). Es zeigt sich ein ähnliches Ergebnis wie das von Fig. 4.
Von der gesamten Körperaktivität an radioaktivem Jod finden sich nach 150 h etwa 23 % im Tumor, etwa 12 % in der Leber, etwa 5 % im Blut und etwa 3 - 4 % jeweils in den Muskeln und in der Schilddrüse. Der Rest ist natürlich, wie auch bei der Aufnahme von Fig 4, über den restlichen Körper verteilt.

[4] = BDIX rat with Ovarialcarcinom, 42 h after injection, 300 µC, % of total labelled agent in whole body
[5] = BD IX rat, Ovarialcarcinom, after 150 h, % of total body activity of radioactive iodine

Substance: Tetra-(4 Amino-phenoxy)-phthalocyanin -CMPEG [TAPPC-CMPEG]
- "bleaching" [1]: kaum "bleaching" festzustellen
- fotodynamische Aktivität [1]: sehr hohe fotodynamische Aktivität bis über 720 nm

Substance: ¹³¹-I-Hydroxyphenylaminomethandiphosphonat- (CMPEG)₂ [Verbindung aus Beispiel 2]
- Konzentration des Mittels an der gewünschten Stelle, also am Tumor [2]: ≥ 30%
- Leber [3, 4]: ca. 10%
- Schilddrüse [3, 4]: < 2%
- im Tumor konzentriert [3, 4]: ca. 30 +/- 2%

Substance: ¹³¹I-Tetra(hydroxyphenyl)-porphin-(CMPEG)₄ [1a]
- Konzentration des Mittels an der gewünschten Stelle, also am Tumor [2]: ≥ 30%
- im Blut [3, 5]: ~5%
- im Tumor [3, 5]: ~23%
- in den Muskeln [3, 5]: 3 - 4%
- in der Leber [3, 5]: ~12%
- in der Schilddrüse [3, 5]: 3 - 4%

Substance: ¹¹¹-In-Tetra-(hydroxyphenoxy)-phthalocyanin-(CMPEG)₄ [1c]
- Konzentration des Mittels an der gewünschten Stelle, also am Tumor [2]: ≥ 30%

Reference: patent EP0485563B1, “POLYETHER-SUBSTITUTED TUMOR AGENTS” (Deutsches Krebsforschungszentrum Stiftung des öffentlichen …, priority 1990, dated 1991)
